Results on two molecules are retold here after patent publication US10501552B2, “Multivalent molecules comprising DR5-binding domains” (MacroGenics, Inc., priority 2015, dated 2019).

For one experiment, the system named is A549. The experiment in a line: MTS cell proliferation assay. The experiment is classed as cell-based, human. The conditions noted are these: A549 (Lung); 1 μg/ml, ±10 μg/ml αmFc; two days. The method, then: (§1) Cell lines obtained from ATCC were cultured under standard tissue culture conditions. Each cell line was plated at ˜2×10^4 cells/well (in 96-well plates), and incubated overnight in F12/DMEM media supplemented with 10% FBS. […] Cell viability was determined using Promega CellTiter 96® AQeous Non-Radioactive Cell Proliferation Assay (Cat # G5430) essentially as described in the manufacturer's instructions to assay the amount of soluble formazan produced by cellular reduction of the MTS, which is a measure of the number of viable cells in the culture. Briefly, MTS/PMS regent was added to the wells and the absorbance at 490 nm (referenced at […]) was read in a Molecular Devices ThermoMax microplate reader.
(§2) Similar studies were performed over a range of anti-DR5 mAb concentrations from ˜10^−3 nM to ˜10^2 nM. The data for COLO205 cells is provided in FIG. 13, and are representative of cell lines sensitive to the antibodies of the invention.
(§3) The cytotoxicity of tetravalent DR5-Binding Molecules of the present invention was investigated. […] His-tagged TRAIL (R&D systems) was used as a positive control.
(§4) Similar studies were performed over a range of anti-DR5 mAb concentrations from ˜10^−3 nM to ˜10^2 nM.
On the technique in general: Tetrazolium assays rely on reduction of a dye to a coloured formazan, in cell work by metabolically active cells.

For another experiment, the system named is DU145. The experiment in a line: MTS cell proliferation assay. It is filed as cell-based, human. The conditions noted are these: DU145 (Prostate); 1 μg/ml, ±10 μg/ml αmFc; two days. The method, then: as §1, §2, §3, §4
The test system of another experiment is LNCap. The experiment in a line: MTS cell proliferation assay. The experiment is classed as cell-based, human. The conditions noted are these: LNCap (Prostate); 1 μg/ml, ±10 μg/ml αmFc; two days. The method, then: as §1, §2, §3, §4
Another experiment concerns SKBR3. The experiment in a line: MTS cell proliferation assay. The experiment is classed as cell-based, human. Particulars: SKBR3 (Breast); 1 μg/ml, ±10 μg/ml αmFc; two days. The protocol:
as §1, §2, §3, §4

The next experiment has as its system SKMES. The experiment can be described thus: MTS cell proliferation assay. The experiment is classed as cell-based, human. The conditions noted are these: SKMES (Lung); 1 μg/ml, ±10 μg/ml αmFc; two days. The protocol: as §1, §2, §3, §4
The next experiment concerns COLO205. The experiment can be described thus: […]-GLO cell viability assay with vorinostat. It is filed as cell-based. The conditions noted are these: for synergy with vorinostat: 0.1 or 1 μM vorinostat; for Average % Ctrl: one day. The protocol: For the first study COLO205 cells were plated at 2×10^4 cells/well (in 96-well plates), and incubated overnight in F12/DMEM media supplemented with 10% FBS. […] Cell viability was determined using Promega […]-GLO® Luminescent Cell Viability Assay (Cat # G5430) essentially as described in the manufacturer's instructions to assay the amount of ATP present, which is a measure of the number of viable cells in the culture. Briefly, an […]-GLO® Reagent was added to the wells and mixed for two minutes to induce lysis and the luminescence was read in a in PerkinElmer EnVision multilabel plate reader.
Cell viability of cells treated with the test articles is normalized to the corresponding negative control (medium±vorinostat) which is set to 100% and reported in Table 12 as % of control for each test agent alone or % control for each test agent in combination with vorinostat. % of control values less than 100% indicate a reduction in viability and reflect the cytotoxicity of the test article alone or in combination with vorinostat.
The Net Gain (Average % Growth Inhibition)=% Medium Ctrl (10% FBS)−% Medium Ctrl (1/10 μM vorinostat), and represents increased cytotoxicity of the test article in combination with vorinostat over cells treated with vorinostat alone.

For a further experiment, the system named is BT474. The experiment can be described thus: […]-GLO cell viability assay with vorinostat. The experiment is classed as cell-based. The conditions noted are these: BT474 (Breast); 1 μg/ml + 10 μM Vorinostat.
For a further experiment, the system named is MDA-MB-361. The experiment in a line: […]-GLO cell viability assay with vorinostat. The experiment is classed as cell-based. Particulars: MDA-MB-361 (Breast); 1 μg/ml + 10 μM Vorinostat.
[1] abbreviates: Vorinostat 0 μM, % Medium Ctrl (10% FBS), 10 ng/ml tetravalent molecule or 1 μg/ml DR5 mAb.
The mark [2] stands for this setting: Vorinostat 0.1 μM, normalized to medium + vorinostat.
Where [3] appears, read: Vorinostat 1 μM, normalized to medium + vorinostat.

B1: DR5 mAb 1: anti-human DR5 monoclonal antibody; VL SEQ ID NO:3, VH SEQ ID NO:8 (antibody, listed as Mus musculus, V domains shown)
VH: EVKFLESGGGLVQPGGSLKLSCVASGFDFSRYWMSWVRQAPGKGLEWIGEINPDSNTINYTPSLKDKFIISRDNAKNTLYLQMTKVRSEDTALYYCTRRAYYGNPAWFAYWGQGTLVTVSS
VL: DIVLTQSPASLAVSLGQRATISCRASKSVSSSGYSYMHWYQQKPGQPPKVLIFLSSNLDSGVPARFSGSGSGTDFTLNIHPVEDGDAATYYCQHSRDLPPTFGGGTKLEIK
modifications: (1)..(121) Anti-DR5 Antibody mAb 1 Heavy Chain Variable Region; (1)..(111) Anti-DR5 Antibody mAb 1 Light Chain Variable Region
For the molecule B1, the “% Inhibition (Average)” value with A549 amounted to 2.79%; in the experiment with DU145, 1.66%; in the experiment on LNCap it was 2.1%; in the experiment on SKBR3, 1.97%; in the experiment with SKMES, 1.75%. Moreover, in the experiment with COLO205, the synergy with vorinostat entry is reported as “did not synergize”. In addition, the “Average % Ctrl” value was 96.8% in the experiment on COLO205 (setting [1]), 96.4% in the experiment with COLO205 (setting [2]) and 93.3% with COLO205 (setting [3]). The “Net Gain (Average % Growth Inhibition)” value in the experiment on COLO205 (Vorinostat 0.1 μM) is 0%; in the experiment on COLO205 (Vorinostat 1 μM) it was 3%; in the experiment with BT474, 2.15%; with MDA-MB-361, 5.11%.

B2: DR5 mAb 2: murine anti-human DR5 monoclonal antibody; VL SEQ ID NO:13, VH SEQ ID NO:18 (antibody, listed as Mus musculus, V domains shown)
VH: KVQLQQSGAELVKPGASVKLSCKASGYTFTEYILHWVKQKSGQGLEWIGWFYPGNNNIKYNEKFKDKATLTADKSSSTVYMELSRLTSEDSAVYFCARHEQGPGYFDYWGQGTTLTVSS
VL: DIVMTQSHKFMSTSVGDRVSITCKASQDVNTAVAWYQQKPGQSPKLLIYWASTRHTGVPDRFTGSGSGTDYTLTIKSVQAEDLTLYYCQQHYITPWTFGGGTKLEIK
modifications: (1)..(119) Anti-DR5 Antibody mAb 2 Heavy Chain Variable Region; (1)..(107) Anti-DR5 Antibody mAb 2 Light Chain Variable Region
As for B2, the “% Inhibition (Average)” value in the experiment with A549 is 4.25%; in the experiment with DU145, 2.09%; in the experiment with LNCap, 1.72%; in the experiment on SKBR3, 2.55%; in the experiment with SKMES, 1.28%. The synergy with vorinostat result in the experiment with COLO205 was “did not synergize”. For the same molecule, the entries for the “Average % Ctrl” value in the experiment on COLO205 (setting [1]), in the experiment with COLO205 (setting [2]) and in the experiment with COLO205 (setting [3]) were 96.4%, 96.5% and 95.5%, respectively. Moreover, the “Net Gain (Average % Growth Inhibition)” value in the experiment with COLO205 (Vorinostat 0.1 μM) was 0%; in the experiment with COLO205 (Vorinostat 1 μM), 1%; in the experiment on BT474, 2.23%; in the experiment on MDA-MB-361, 5.11%.
